From publication PMC7536876 (bioRxiv, 2020)

B1: MERS-CoV nsp7 (natural protein)
chain: SKLTDLKCTSVVLLSVLQQLHLEANSRAWAFCVKCHNDILAATDPSEAFEKFVSLFATLMTFSGNVDLDALASDIFDTPSVLQ
B2: FIPV nsp7 (natural protein)
chain: SKLTEMKCTNVVLLGLLSKMHVESNSKEWNYCVGLHNEINLCDDPDAVLEKLLALIAFFLSKHNTCDLSDLIESYFENTTILQ
B3: PEDV nsp7 (natural protein)
chain: SKLTDIKCSNVVLLGCLSSMNVSANSTEWAYCVDLHNKINLCNDPEKAQEMLLALLAFFLSKNSAFGLDDLLESYFNDNSMLQ

Assays:
Experiment in all cases: native MS
[1] = target: SARS-CoV nsp7–8-His6 precursor (SARS-CoV (strain Frankfurt-1)) (UniProt P0C6X7)
[2] = target: HCoV-229E nsp7–8-His6 precursor (HCoV-229E) (UniProt P0C6X1)
[3] = target: PEDV nsp7–8-His6 precursor (PEDV (strain CV777)) (UniProt P0C6Y4)
[4] = target: the molecule itself

Molecule	stoichiometry N [4]	further results
SARS-CoV nsp7–8-His6 precursor (from UniProt P0C6X7) (domain or fragment)		stoichiometry N [1]: 2
HCoV-229E nsp7–8-His6 precursor (from UniProt P0C6X1) (domain or fragment)		stoichiometry N [2]: 2
PEDV nsp7–8-His6 precursor (from UniProt P0C6Y4) (domain or fragment)		stoichiometry N [3]: 2
B1	2	
B2	2	
B3	2	
